{"source": "patent US20250327097A1", "about": "“ORGANISMS PRODUCING LESS CROTONIC ACID” (Global Bioenergies, priority 2021, published 2025)"}
{"tested_on": "3-methylcrotonic acid", "format": "biochemical, Yersinia frederiksenii", "design": "key: “+” representing a low increase in activity; “++++” representing a high increase in activity"}
{"molecule": "I283T-P284D-N285M-N287T-L289H-S322T-N388M-K394R-C430A-L432F-L434W-S436N-G462P-A463P (protein) MFLKSLREQINLLKRQGDLRIINRPVDSYLEAAAIIRRSTETKAPVPLMTNIKGYPGCSIVGGLAALSSNPEYPLSRVAMSLGLSTTASAQSIVQYLIDGLKKTPYLPVEIDSNSAPCKQNILRGEDASLAHFPIPQVHQHDGNRYVNTWGVFIVESPDGQWCNWSIQRVQYLNDRQMIALVFPSQHISDIWEEWVKIGKPMPYALVQGCEPIVPYIAGLPLLERNVNEAEYIGALYGKGIEVVKCETHDLRVPASSEVVIEGYFAITREGVEGPFGEFAGYTDMETSHQPILSITAISWQDDPIWPVVAEGKPVDEYHTCTGIGDAAAIQNVLLTANLPVSFVWVPLYSACHLMIVSINRHWRQTHPDLTSEQLTKKVGDVIHQTRMSIKLPRIVVLDDDVDPADTESLLWALATRIHPERKRYFYESAIFPWLNCYSEEERHNRKGKRVIIDALLPENHPPISSFDYAYPDDIKQRVLMHWETDFSHD", "Activity relative to WT": "++++"}
{"molecule": "I283T-N285P-N287T-Q290E-S322T-N388M-K394R-dR422-C430A-L432F-L434W-S436N-dG462 (protein) MFLKSLREQINLLKRQGDLRIINRPVDSYLEAAAIIRRSTETKAPVPLMTNIKGYPGCSIVGGLAALSSNPEYPLSRVAMSLGLSTTASAQSIVQYLIDGLKKTPYLPVEIDSNSAPCKQNILRGEDASLAHFPIPQVHQHDGNRYVNTWGVFIVESPDGQWCNWSIQRVQYLNDRQMIALVFPSQHISDIWEEWVKIGKPMPYALVQGCEPIVPYIAGLPLLERNVNEAEYIGALYGKGIEVVKCETHDLRVPASSEVVIEGYFAITREGVEGPFGEFAGYTPPETSLEPILSITAISWQDDPIWPVVAEGKPVDEYHTCTGIGDAAAIQNVLLTANLPVSFVWVPLYSACHLMIVSINRHWRQTHPDLTSEQLTKKVGDVIHQTRMSIKLPRIVVLDDDVDPADTESLLWALATRIHPERKRYFYESAIFPWLNCYSEEERHNRKGKRVIIDALLPENHGAISSFDYAYPDDIKQRVLMHWETDFSHD", "Activity relative to WT": "++++"}
{"molecule": "L223Y-I283T-N285P-N287T-Q290E-S322T-N388M-K394R-K423G-C430A-L432F-L434W-S436N-dG462 (protein) MFLKSLREQINLLKRQGDLRIINRPVDSYLEAAAIIRRSTETKAPVPLMTNIKGYPGCSIVGGLAALSSNPEYPLSRVAMSLGLSTTASAQSIVQYLIDGLKKTPYLPVEIDSNSAPCKQNILRGEDASLAHFPIPQVHQHDGNRYVNTWGVFIVESPDGQWCNWSIQRVQYLNDRQMIALVFPSQHISDIWEEWVKIGKPMPYALVQGCEPIVPYIAGLPLYERNVNEAEYIGALYGKGIEVVKCETHDLRVPASSEVVIEGYFAITREGVEGPFGEFAGYTPPETSLEPILSITAISWQDDPIWPVVAEGKPVDEYHTCTGIGDAAAIQNVLLTANLPVSFVWVPLYSACHLMIVSINRHWRQTHPDLTSEQLTKKVGDVIHQTRMSIKLPRIVVLDDDVDPADTESLLWALATRIHPERGRYFYESAIFPWLNCYSEEERHNRKGKRVIIDALLPENHGAISSFDYAYPDDIKQRVLMHWETDFSHD", "Activity relative to WT": "++++"}
{"molecule": "I283T-P284D-i284aP-N287P-S322T-N388M-E421V-R422F-C430N-L432F-L434W-S436N-dG462-A463T (protein) MFLKSLREQINLLKRQGDLRIINRPVDSYLEAAAIIRRSTETKAPVPLMTNIKGYPGCSIVGGLAALSSNPEYPLSRVAMSLGLSTTASAQSIVQYLIDGLKKTPYLPVEIDSNSAPCKQNILRGEDASLAHFPIPQVHQHDGNRYVNTWGVFIVESPDGQWCNWSIQRVQYLNDRQMIALVFPSQHISDIWEEWVKIGKPMPYALVQGCEPIVPYIAGLPLLERNVNEAEYIGALYGKGIEVVKCETHDLRVPASSEVVIEGYFAITREGVEGPFGEFAGYTDNEPSLQPILSITAISWQDDPIWPVVAEGKPVDEYHTCTGIGDAAAIQNVLLTANLPVSFVWVPLYSACHLMIVSINRHWRQTHPDLTSEQLTKKVGDVIHQTRMSIKLPKIVVLDDDVDPADTESLLWALATRIHPVFKRYFYESNIFPWLNCYSEEERHNRKGKRVIIDALLPENHGTISSFDYAYPDDIKQRVLMHWETDFSHD", "Activity relative to WT": "++++"}
{"molecule": "N287K-N388M-K394R-C430N-L432F-L434W-S436N (protein) MFLKSLREQINLLKRQGDLRIINRPVDSYLEAAAIIRRSTETKAPVPLMTNIKGYPGCSIVGGLAALSSNPEYPLSRVAMSLGLSTTASAQSIVQYLIDGLKKTPYLPVEIDSNSAPCKQNILRGEDASLAHFPIPQVHQHDGNRYVNTWGVFIVESPDGQWCNWSIQRVQYLNDRQMIALVFPSQHISDIWEEWVKIGKPMPYALVQGCEPIVPYIAGLPLLERNVNEAEYIGALYGKGIEVVKCETHDLRVPASSEVVIEGYFAITREGVEGPFGEFAGYIPNEKSLQPILSITAISWQDDPIWPVVAEGKPVDEYHTCSGIGDAAAIQNVLLTANLPVSFVWVPLYSACHLMIVSINRHWRQTHPDLTSEQLTKKVGDVIHQTRMSIKLPRIVVLDDDVDPADTESLLWALATRIHPERKRYFYESNIFPWLNCYSEEERHNRKGKRVIIDALLPENHGAISSFDYAYPDDIKQRVLMHWETDFSHD", "Activity relative to WT": "+"}
{"molecule": "I283T-P284D-N285M-N287T-S322T-N388M-K394R-C430A-L432F-L434W-S436N-G462T-A463P (protein) MFLKSLREQINLLKRQGDLRIINRPVDSYLEAAAIIRRSTETKAPVPLMTNIKGYPGCSIVGGLAALSSNPEYPLSRVAMSLGLSTTASAQSIVQYLIDGLKKTPYLPVEIDSNSAPCKQNILRGEDASLAHFPIPQVHQHDGNRYVNTWGVFIVESPDGQWCNWSIQRVQYLNDRQMIALVFPSQHISDIWEEWVKIGKPMPYALVQGCEPIVPYIAGLPLLERNVNEAEYIGALYGKGIEVVKCETHDLRVPASSEVVIEGYFAITREGVEGPFGEFAGYTDMETSLQPILSITAISWQDDPIWPVVAEGKPVDEYHTCTGIGDAAAIQNVLLTANLPVSFVWVPLYSACHLMIVSINRHWRQTHPDLTSEQLTKKVGDVIHQTRMSIKLPRIVVLDDDVDPADTESLLWALATRIHPERKRYFYESAIFPWLNCYSEEERHNRKGKRVIIDALLPENHTPISSFDYAYPDDIKQRVLMHWETDFSHD", "Activity relative to WT": "++++"}
{"molecule": "I283T-P284D-i284aP-N287P-S322T-N388M-E421V-C430N-L432F-L434W-S436N-H461T-dG462-A463T (protein) MFLKSLREQINLLKRQGDLRIINRPVDSYLEAAAIIRRSTETKAPVPLMTNIKGYPGCSIVGGLAALSSNPEYPLSRVAMSLGLSTTASAQSIVQYLIDGLKKTPYLPVEIDSNSAPCKQNILRGEDASLAHFPIPQVHQHDGNRYVNTWGVFIVESPDGQWCNWSIQRVQYLNDRQMIALVFPSQHISDIWEEWVKIGKPMPYALVQGCEPIVPYIAGLPLLERNVNEAEYIGALYGKGIEVVKCETHDLRVPASSEVVIEGYFAITREGVEGPFGEFAGYTDNEPSLQPILSITAISWQDDPIWPVVAEGKPVDEYHTCTGIGDAAAIQNVLLTANLPVSFVWVPLYSACHLMIVSINRHWRQTHPDLTSEQLTKKVGDVIHQTRMSIKLPKIVVLDDDVDPADTESLLWALATRIHPVRKRYFYESNIFPWLNCYSEEERHNRKGKRVIIDALLPENTGTISSFDYAYPDDIKQRVLMHWETDFSHD", "Activity relative to WT": "++++"}
{"molecule": "I283T-P284D-i284aP-N287P-S322T-N388M-E421V-C430N-L432F-L434W-S436N-H461V-dG462-A463T (protein) MFLKSLREQINLLKRQGDLRIINRPVDSYLEAAAIIRRSTETKAPVPLMTNIKGYPGCSIVGGLAALSSNPEYPLSRVAMSLGLSTTASAQSIVQYLIDGLKKTPYLPVEIDSNSAPCKQNILRGEDASLAHFPIPQVHQHDGNRYVNTWGVFIVESPDGQWCNWSIQRVQYLNDRQMIALVFPSQHISDIWEEWVKIGKPMPYALVQGCEPIVPYIAGLPLLERNVNEAEYIGALYGKGIEVVKCETHDLRVPASSEVVIEGYFAITREGVEGPFGEFAGYTDNEPSLQPILSITAISWQDDPIWPVVAEGKPVDEYHTCTGIGDAAAIQNVLLTANLPVSFVWVPLYSACHLMIVSINRHWRQTHPDLTSEQLTKKVGDVIHQTRMSIKLPKIVVLDDDVDPADTESLLWALATRIHPVRKRYFYESNIFPWLNCYSEEERHNRKGKRVIIDALLPENVGTISSFDYAYPDDIKQRVLMHWETDFSHD", "Activity relative to WT": "++++"}
{"molecule": "I283T-P284D-i284aP-N287P-S322T-N388M-E421V-C430N-L432F-L434W-S436N-dG462-A463T (protein) MFLKSLREQINLLKRQGDLRIINRPVDSYLEAAAIIRRSTETKAPVPLMTNIKGYPGCSIVGGLAALSSNPEYPLSRVAMSLGLSTTASAQSIVQYLIDGLKKTPYLPVEIDSNSAPCKQNILRGEDASLAHFPIPQVHQHDGNRYVNTWGVFIVESPDGQWCNWSIQRVQYLNDRQMIALVFPSQHISDIWEEWVKIGKPMPYALVQGCEPIVPYIAGLPLLERNVNEAEYIGALYGKGIEVVKCETHDLRVPASSEVVIEGYFAITREGVEGPFGEFAGYTDNEPSLQPILSITAISWQDDPIWPVVAEGKPVDEYHTCTGIGDAAAIQNVLLTANLPVSFVWVPLYSACHLMIVSINRHWRQTHPDLTSEQLTKKVGDVIHQTRMSIKLPKIVVLDDDVDPADTESLLWALATRIHPVRKRYFYESNIFPWLNCYSEEERHNRKGKRVIIDALLPENHGTISSFDYAYPDDIKQRVLMHWETDFSHD", "Activity relative to WT": "++++"}
{"molecule": "I283T-P284D-N285I-N287T-i287aS-S322T-N388M-K394R-C430A-L432F-L434W-S436N-G462P-A463P (protein) MFLKSLREQINLLKRQGDLRIINRPVDSYLEAAAIIRRSTETKAPVPLMTNIKGYPGCSIVGGLAALSSNPEYPLSRVAMSLGLSTTASAQSIVQYLIDGLKKTPYLPVEIDSNSAPCKQNILRGEDASLAHFPIPQVHQHDGNRYVNTWGVFIVESPDGQWCNWSIQRVQYLNDRQMIALVFPSQHISDIWEEWVKIGKPMPYALVQGCEPIVPYIAGLPLLERNVNEAEYIGALYGKGIEVVKCETHDLRVPASSEVVIEGYFAITREGVEGPFGEFAGYTDIETSLQPILSITAISWQDDPIWPVVAEGKPVDEYHTCTGIGDAAAIQNVLLTANLPVSFVWVPLYSACHLMIVSINRHWRQTHPDLTSEQLTKKVGDVIHQTRMSIKLPRIVVLDDDVDPADTESLLWALATRIHPERKRYFYESAIFPWLNCYSEEERHNRKGKRVIIDALLPENHPPISSFDYAYPDDIKQRVLMHWETDFSHD", "Activity relative to WT": "++++"}
